Data taken from patent US20100135951.

Tested on: Ser90 mutant DDX3

GSK3
phosphorylation (32P incorporation): GSK3 fails to phosphorylate DDX3 with a point mutation at Ser90
